# Measurements published in patent US20180057591A1 (Eli Lilly, published 2018).
# Substitutions are numbered along the chain they refer to.
# B1: Antibody A (antibody, human IgG1, kappa, V domains shown)
# VH: EVQLLESGGGLVQPGGSLRLSCAASGFTFSSYYMSWVRQAPGKGLEWVSAISGSGGSTYYADSVKGRFTISRDNSKNTLYLQMNSLRAEDTAVYYCARYARTAFDLWGQGTLVTVSS
# VL: DIVMTQSPSSLSASVGDGVTITCQASQDIYNYLNWYQQKPGKAPKLLIYAASSLQSGVPSRFSGSGSGTDFTLTISSLQPEDFATYYCQQANSFPPTFGQGTKLEIKR
# notes: also called anti-human Tim-3; Antiboby A
# B2: Antibody A-Fab (Fab, V domains shown)
# VH: B1 VH
# VL: B1 VL
# notes: Made by clipping Antibody A with immobilized papain; also called Fab for Antibody A
# B3: Antibody B (antibody, human IgG1, kappa, V domains shown)
# VH: B1 VH with T28S, Y32F, M34F, S54N, G56R, A100Y, R101N, A103G
# VL: B1 VL with Q27E, D28A, N31G, Q55P, S56I, N92Y, S93G
# B4: Antibody C (antibody, human IgG1, kappa, V domains shown)
# VH: B1 VH with S54N, G56K, A100Y, R101N, A103G
# VL: B1 VL with A50Y, L54I, Q55V
# Assays:
# [1] = biological target: T1, human Tim-3 on cells (Tim-3 DO11.10 cells, a human Tim-3 expressing DO11.10 cell line) (human, UniProt Q8TDQ0 22-301); test: cell-based or functional assay
# [2] = biological target: T2, human Tim-3-Fc (R&D Systems) (human, UniProt Q8TDQ0 22-130, biotinylated in the phosphatidylserine assay; ruthenylated (sulfo-tag NHS-ester) in the galectin-9 assay); test: ELISA, plate coated with human Tim-3-Fc
# T2 construct: Bought from R&D Systems; also called hTIM-3-Fc; hTIM-3-Fc Biotin; not shown: Fc part of the bought fusion protein
# [3] = biological target: T2, human Tim-3-Fc (R&D Systems); test: MSD blocking assay, ruthenylated hTim-3-Fc binding to plate-bound galectin-9-biotin
# [4] = biological target: T1, human Tim-3 on cells (Tim-3 DO11.10 …); test: flow cytometry, A488-labelled antibody on Tim-3 DO11.10 cells
# [5] = biological target: T3, human Tim-3-IgV-Fc single arm antigen (SAG) (human, UniProt Q8TDQ0 22-130); test: SPR, Biacore T100, antibody captured by Human Fab Binder, Tim-3 SAG as analyte, 1:1 Langmuir with mass transport
# T3 construct: Single arm format: the second (Fc only) chain is not described; also called Tim-3 SAG; not shown: Fc part
# [6] = biological target: T2, human Tim-3-Fc (R&D Systems); test: flow cytometry, blocking of biotinylated hTIM-3-Fc binding to phosphatidylserine on camptothecin-treated DO11.10 cells; blocking of hTIM-3-Fc Biotin binding to phosphatidylserine on camptothecin-treated DO11.10 cells
# hTim-3-IgV-FLAG = biological target: T4, hTim-3-IgV-FLAG (human, UniProt Q8TDQ0 22-130, density indicating glycosylation at Asn99); test: SPR, Biacore T200, Fab captured, hTim-3-IgV-FLAG as analyte, HBS-EP, 25 C, 1:1 binding
# T4 construct: Purified from 293HEK supernatant with anti-FLAG resin; also called hTim-3-FLAG; not shown: FLAG tag
Binder,"EC50 (nM), IL-2 production of hTim-3 DO11.10 cells with A20 cells and OVA peptide [1] [nM]",EC50 [2] [nM],IC50 [3] [nM],EC50 [4] [nM],Kd [5] [nM],koff [5] [s⁻¹],kon [5] [M⁻¹ s⁻¹],IC50 [6] [nM],Kd (hTim-3-IgV-FLAG) [nM],koff (hTim-3-IgV-FLAG) [s⁻¹],kon (hTim-3-IgV-FLAG) [M⁻¹ s⁻¹]
B1,3.71,0.0207,5.6,0.09,0.398,0.000927,2.33e+06,0.32,–,–,–
B2,–,–,–,–,–,–,–,–,7.92,0.00286,362000
B3,6.08,–,–,–,0.158,0.000106,675000,–,–,–,–
B4,3.35,–,–,–,0.173,0.000138,797000,–,–,–,–
